This is an account of results in paper PMC8253979, “The C-terminal tail extension of myosin 16 acts as a molten globule, including intrinsically disordered regions, and interacts with the N-terminal ankyrin” (The Journal of Biological Chemistry, 2021).

What all share (settings): both partners purified
Assay [1] concerns the target T1, myosin 16 C-terminal tail (Myo16Tail), His6-tagged, with the IQ motif (Rattus norvegicus, UniProt Q9ERC1 1146-1912).
T1 construct: Myosin 16 (Myo16b isoform, 1912 aa), Rattus norvegicus, UniProt Q9ERC1, residues 1146-1912: IQ motif, NHM, proline-rich region and C-terminal element; cloned into pFastBac; No removal of the His6 tag is described; also called His6–Myo16Tail; C-terminal tail extension of Myo16b; source: baculovirus/Sf9, purified under denaturing conditions (6 M GuHCl, 8 M urea, Ni-NTA), renatured by dialysis
T1 sequence (looked up): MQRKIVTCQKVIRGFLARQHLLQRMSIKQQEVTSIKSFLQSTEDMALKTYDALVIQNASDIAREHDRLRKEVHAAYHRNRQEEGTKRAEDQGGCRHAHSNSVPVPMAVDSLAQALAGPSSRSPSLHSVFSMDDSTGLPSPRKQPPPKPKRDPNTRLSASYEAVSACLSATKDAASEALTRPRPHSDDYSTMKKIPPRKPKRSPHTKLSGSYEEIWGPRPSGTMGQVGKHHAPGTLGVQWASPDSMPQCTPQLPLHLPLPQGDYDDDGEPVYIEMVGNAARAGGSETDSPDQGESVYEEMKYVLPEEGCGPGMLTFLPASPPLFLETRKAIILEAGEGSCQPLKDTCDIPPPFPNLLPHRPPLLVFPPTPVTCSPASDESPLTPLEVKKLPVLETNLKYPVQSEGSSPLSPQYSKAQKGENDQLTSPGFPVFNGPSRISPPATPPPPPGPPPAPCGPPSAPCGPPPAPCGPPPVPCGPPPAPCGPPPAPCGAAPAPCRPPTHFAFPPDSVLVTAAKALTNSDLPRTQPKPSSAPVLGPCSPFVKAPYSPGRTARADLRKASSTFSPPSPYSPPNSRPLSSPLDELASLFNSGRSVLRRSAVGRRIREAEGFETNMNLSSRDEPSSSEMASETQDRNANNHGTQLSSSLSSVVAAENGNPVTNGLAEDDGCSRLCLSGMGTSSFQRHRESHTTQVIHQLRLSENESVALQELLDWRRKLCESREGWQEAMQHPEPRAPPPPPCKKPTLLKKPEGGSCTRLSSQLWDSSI
Nature of the assay: fluorescence polarisation; steady-state fluorescence anisotropy; Alexa568–Myo16Ank fixed (1.2 μM with Myo16Tail, 1 μM with Myo16Tail (−IQ)), tail construct titrated; λex 578 nm, λem 601 nm; quadratic binding equation (Equation 1). Background: Fluorescence polarisation rises when a labelled molecule tumbles more slowly, as on binding a larger partner.

The target of assay [2] is T2, Myo16Tail without the IQ motif, Myo16Tail (−IQ), His6-tagged (Rattus norvegicus, UniProt Q9ERC1 1176-1912).
T2 construct: Myosin 16 (Myo16b isoform), Rattus norvegicus, UniProt Q9ERC1, residues 1176-1912 (tail without the IQ motif); Cloned into the pFastBac vector as m1; No removal of the His6 tag is described; also called His6–Myo16Tail (−IQ); source: baculovirus/Sf9, purified by the denaturing procedure (Ni-NTA), renatured
T2 sequence (looked up): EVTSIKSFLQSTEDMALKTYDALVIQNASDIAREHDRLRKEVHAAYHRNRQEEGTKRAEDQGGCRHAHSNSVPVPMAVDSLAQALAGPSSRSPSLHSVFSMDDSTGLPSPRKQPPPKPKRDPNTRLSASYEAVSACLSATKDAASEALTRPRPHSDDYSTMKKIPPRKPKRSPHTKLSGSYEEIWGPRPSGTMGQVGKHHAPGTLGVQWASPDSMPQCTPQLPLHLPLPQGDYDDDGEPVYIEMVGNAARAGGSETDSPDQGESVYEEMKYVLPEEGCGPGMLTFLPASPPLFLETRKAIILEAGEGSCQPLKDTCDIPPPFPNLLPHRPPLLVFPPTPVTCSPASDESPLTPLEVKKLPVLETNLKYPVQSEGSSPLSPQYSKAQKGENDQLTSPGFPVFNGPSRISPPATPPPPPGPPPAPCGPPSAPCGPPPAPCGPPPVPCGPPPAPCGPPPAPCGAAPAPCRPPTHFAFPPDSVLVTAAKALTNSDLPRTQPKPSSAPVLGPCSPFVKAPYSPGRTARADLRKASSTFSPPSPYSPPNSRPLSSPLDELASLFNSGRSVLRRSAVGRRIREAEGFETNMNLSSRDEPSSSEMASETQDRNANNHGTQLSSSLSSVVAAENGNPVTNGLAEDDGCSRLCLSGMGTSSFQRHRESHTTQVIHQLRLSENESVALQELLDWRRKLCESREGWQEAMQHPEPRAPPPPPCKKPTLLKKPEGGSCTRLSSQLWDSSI
The description is as above.

In assay [3] the target is T3, Alexa568-labelled synthesized rat myosin 16 IQ motif peptide (Alexa568–Myo16IQ) (Rattus norvegicus, UniProt Q9ERC1 1146-1175, Alexa Fluor C5 568 maleimide label, position not stated).
T3 construct: Myosin 16 IQ motif, Rattus norvegicus, residues 1146-1175 (30 amino acids, MW 3.6385 kDa by mass spectrometry); source: synthetic peptide (GenScript)
T3 peptide (looked up): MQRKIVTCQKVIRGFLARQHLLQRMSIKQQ
As to the kind of experiment: fluorescence polarisation; steady-state fluorescence anisotropy; Alexa568–Myo16IQ fixed (1 μM), Myo16Ank titrated; λex 578 nm, λem 601 nm; quadratic binding equation (Equation 1).

B1: Alexa568-labelled N-terminal ankyrin domain of myosin 16 (Alexa568–Myo16Ank) (domain or fragment)
chain: MEIDQCLLESLPLGQRQRLVRRMRCEQIKAYYEREKVFQKQEGLLKRIKPGKSQKVRFGLADMIQDAIIHHHDKEVLQLLKEGADPHTLVSSGGSLLHLCARYDNVFIAEVLIDRGVNVNHQDEDFWAPMHIACACDNPDIVLLLILAGANVLLQDVNGNIPLDYAVEGTESSAILLAYLDENGVDLNSLRQIKLQRPLSMLTDVRHFLSSGGDVNEKNDDGVTLLHMACASGYKEVVLLLLEHGGDLNGMDDGYWTPLHLAAKYGQTTLVKLLLAHQANPHLVNCNGEKPSDIAASESIEEMLLKAEIAWEERMKESPSVPSLAQEELYEEILHDLPELSSKLSPLVLPIAKQDSLLEKDIMFKDTTKGLCNQESQDGPPETSMVSSSSKPEQVQLTPP
modifications: Alexa Fluor C5 568 maleimide label, position not stated
Broadly, the Kd is the concentration at which binding is half-saturated. Regarding B1, the values for the Kd in assay [1] and in assay [2] were 2500 nM and 5.6 µM, respectively.

B2: N-terminal ankyrin domain of myosin 16 (Myo16Ank), unlabelled (domain or fragment)
chain: B1 chain
Turning to B2, the affinity in assay [3], expressed as Kd, was 16 µM.
